Experimental data reported in the supplement of paper PMC7877785.
± gives the uncertainty stated by the source.

Assay: self-splicing fitness, log relative to wild type (ln ratio); higher = more splicing; Tetrahymena group I intron in knt gene, E. coli kanamycin selection, DiMSum; sequences stand for … in CUCUCU…GGAGGGAAAAGUUAUCAGGCAUGCACCUGGUAGCUAGUCUUUAAACCAAUAGAUUGCAUCGGUUUAAAAGGCAAGACCGUCAAAUUGCGGGAAAGGGGUCAACAGCCGUUCAGUACCAAGUCUCAGGGGAAACUUUGAGAUGGCCUUGCAAAGGGUAUGGUAAUAAGCUGACGGACAUGGUCCUAACCACGCAGCCAAGUCCUAAGUCAACAGAUCUUCUGUUGAUAUGGAUGCAGUUCACAGACUAAAUGUCGGUCGGGGAAGAUGUAUUCUUCUCAUAAGAUAUAGUCGGACCUCUCCUUAAUGGGAGCUAGCGGAUGAAGUGAUGCAACACUGGAGCCGCUGGGAACUAAUUUGUAUGCGAAAGUAUAUUGAUUAGUUUUGGAGUACUCGUGGUCG
Outline: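 Fitness was computed with DiMSum as the error-weighted combination of replicate fold changes, kanamycin versus none, each normalised to wild type. The library randomised all eight intron nucleotides of the P1ex region, with the intron placed in the knt kanamycin-resistance gene on pET-22b(+) in E. coli BL21(DE3). Six replicate transformations were grown overnight at 37°C or 30°C on LB agar with or without 25 μg/mL kanamycin, plus 100 μg/mL carbenicillin, 50 μM IPTG and 0.2% rhamnose. Pooled colonies were amplicon-sequenced on an Illumina HiSeq 2500.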

Sequence: UCACAGCAAUAUUACGACAC
- self-splicing fitness (ln) (30 °C): -3.44 ± 0.38
- self-splicing fitness (ln) (37 °C): -2.71 ± 0.34

Sequence: UCACAGCAAUAUUACGACAG
- self-splicing fitness (ln) (30 °C): -2.15 ± 0.082
- self-splicing fitness (ln) (37 °C): -1.47 ± 0.088

Sequence: UCACAGCAAUAUUACGACCA
- self-splicing fitness (ln) (30 °C): -1.89 ± 0.21
- self-splicing fitness (ln) (37 °C): 0.0251 ± 0.21

Sequence: UCACAGCAAUAUUACGACGC
- self-splicing fitness (ln) (30 °C): -2.07 ± 0.15
- self-splicing fitness (ln) (37 °C): -1.03 ± 0.2

Sequence: UCACAGCAAUAUUACGAUAA
- self-splicing fitness (ln) (30 °C): -1.65 ± 0.066
- self-splicing fitness (ln) (37 °C): -0.733 ± 0.074

Sequence: UCACAGCAAUAUUACGAUGU
- self-splicing fitness (ln) (30 °C): -4.15 ± 0.29
- self-splicing fitness (ln) (37 °C): -1.77 ± 0.17

Sequence: UCACAGCAAUAUUACGCCGU
- self-splicing fitness (ln) (30 °C): -4.25 ± 0.46
- self-splicing fitness (ln) (37 °C): -3.02 ± 0.35

Sequence: UCACAGCAAUAUUACGCGUG
- self-splicing fitness (ln) (30 °C): -2.87 ± 0.14
- self-splicing fitness (ln) (37 °C): -2.13 ± 0.14

Sequence: UCACAGCAAUAUUACGGAGC
- self-splicing fitness (ln) (30 °C): -2.68 ± 0.15
- self-splicing fitness (ln) (37 °C): -2.04 ± 0.22

Sequence: UCACAGCAAUAUUACGGCCC
- self-splicing fitness (ln) (30 °C): -3.44 ± 0.45
- self-splicing fitness (ln) (37 °C): -1.82 ± 0.44

Sequence: UCACAGCAAUAUUACGGCUA
- self-splicing fitness (ln) (30 °C): -1.64 ± 0.095
- self-splicing fitness (ln) (37 °C): -0.219 ± 0.077

Sequence: UCACAGCAAUAUUACGGCUG
- self-splicing fitness (ln) (30 °C): -3.35 ± 0.16
- self-splicing fitness (ln) (37 °C): -2.96 ± 0.23

Sequence: UCACAGCAAUAUUACGGGGA
- self-splicing fitness (ln) (30 °C): -1.15 ± 0.065
- self-splicing fitness (ln) (37 °C): 0.015 ± 0.076

Sequence: UCACAGCAAUAUUACGGUUU
- self-splicing fitness (ln) (30 °C): -2.56 ± 0.068
- self-splicing fitness (ln) (37 °C): -1.15 ± 0.067

Sequence: UCACAGCAAUAUUACGUAAA
- self-splicing fitness (ln) (30 °C): -2.14 ± 0.069
- self-splicing fitness (ln) (37 °C): -1.18 ± 0.084

Sequence: UCACAGCAAUAUUACGUAGC
- self-splicing fitness (ln) (30 °C): -2.87 ± 0.18
- self-splicing fitness (ln) (37 °C): -1.34 ± 0.21

Sequence: UCACAGCAAUAUUACGUAGU
- self-splicing fitness (ln) (30 °C): -3.38 ± 0.12
- self-splicing fitness (ln) (37 °C): -2.6 ± 0.17

Sequence: UCACAGCAAUAUUACGUGAA
- self-splicing fitness (ln) (30 °C): -2.36 ± 0.1
- self-splicing fitness (ln) (37 °C): -1.4 ± 0.1

Sequence: UCACAGCAAUAUUACGUUUA
- self-splicing fitness (ln) (30 °C): -2.53 ± 0.13
- self-splicing fitness (ln) (37 °C): -0.819 ± 0.082

Sequence: UCAGAGCAAUAUUACGAGUU
- self-splicing fitness (ln) (30 °C): -2.22 ± 0.2
- self-splicing fitness (ln) (37 °C): -0.115 ± 0.27

Sequence: UCAGAGCAAUAUUACGCAUU
- self-splicing fitness (ln) (30 °C): -3.35 ± 0.43
- self-splicing fitness (ln) (37 °C): -0.634 ± 0.19

Sequence: UCAGAGCAAUAUUACGCCCU
- self-splicing fitness (ln) (37 °C): -2.21 ± 0.39

Sequence: UCAGAGCAAUAUUACGCGGU
- self-splicing fitness (ln) (30 °C): -4.12 ± 0.33
- self-splicing fitness (ln) (37 °C): -3.04 ± 0.32

Sequence: UCAGAGCAAUAUUACGGACG
- self-splicing fitness (ln) (30 °C): -3.67 ± 0.44
- self-splicing fitness (ln) (37 °C): -1.58 ± 0.2

Sequence: UCAGAGCAAUAUUACGGAUU
- self-splicing fitness (ln) (30 °C): -3.58 ± 0.19
- self-splicing fitness (ln) (37 °C): -2.68 ± 0.23

Sequence: UCAGAGCAAUAUUACGGCCC
- self-splicing fitness (ln) (30 °C): -2.13 ± 0.39
- self-splicing fitness (ln) (37 °C): -0.0611 ± 0.34

Sequence: UCAGAGCAAUAUUACGGCCU
- self-splicing fitness (ln) (30 °C): -2.39 ± 0.34
- self-splicing fitness (ln) (37 °C): -2.73 ± 0.31

Sequence: UCAGAGCAAUAUUACGGGAA
- self-splicing fitness (ln) (37 °C): -2.4 ± 0.2

Sequence: UCAGAGCAAUAUUACGGUAA
- self-splicing fitness (ln) (30 °C): -3.7 ± 0.47
- self-splicing fitness (ln) (37 °C): -1.85 ± 0.41

Sequence: UCAGAGCAAUAUUACGUACG
- self-splicing fitness (ln) (30 °C): -1.96 ± 0.24
- self-splicing fitness (ln) (37 °C): -1.96 ± 0.28

Sequence: UCAGAGCAAUAUUACGUACU
- self-splicing fitness (ln) (30 °C): -3.35 ± 0.34
- self-splicing fitness (ln) (37 °C): -2.24 ± 0.3

Sequence: UCAGAGCAAUAUUACGUCCA
- self-splicing fitness (ln) (30 °C): -3.75 ± 0.47
- self-splicing fitness (ln) (37 °C): -2.25 ± 0.39

Sequence: UCAGAGCAAUAUUACGUCUG
- self-splicing fitness (ln) (30 °C): -2.88 ± 0.12
- self-splicing fitness (ln) (37 °C): -2.35 ± 0.14

Sequence: UCAGAGCAAUAUUACGUGCU
- self-splicing fitness (ln) (30 °C): -3.09 ± 0.2
- self-splicing fitness (ln) (37 °C): -3.07 ± 0.28

Sequence: UCAGAGCAAUAUUACGUGUC
- self-splicing fitness (ln) (30 °C): -4.13 ± 0.31
- self-splicing fitness (ln) (37 °C): -2.63 ± 0.23

Sequence: UCAGAGCAAUAUUACGUUCU
- self-splicing fitness (ln) (30 °C): -3.86 ± 0.22
- self-splicing fitness (ln) (37 °C): -2.47 ± 0.25

Sequence: UCAGAGCAAUAUUACGUUGG
- self-splicing fitness (ln) (30 °C): -3.05 ± 0.21
- self-splicing fitness (ln) (37 °C): -2.9 ± 0.35

Sequence: UCAUAGCAAUAUUACGACCG
- self-splicing fitness (ln) (30 °C): -1.36 ± 0.16
- self-splicing fitness (ln) (37 °C): -0.325 ± 0.22

Sequence: UCAUAGCAAUAUUACGAGUA
- self-splicing fitness (ln) (30 °C): -3.06 ± 0.23
- self-splicing fitness (ln) (37 °C): 0.0724 ± 0.12
